Assay [1] addresses T1, FcγRIIIa extracellular domain with C-terminal His tag (human, UniProt P08637 17-208).
T1 construct: extracellular domain; also called FcgRIIIa; CD16A
Put plainly: SPR (Biacore), antibody captured, FcγRIIIa as analyte, 1:1 Langmuir kinetic fit. The procedure:
The prepared antibodies were compared for the FcγRIIIa-binding activity using, as an indicator, KD for FcγRIIIa that was determined according to the method described in Reference Example 2.
(§1) Analysis of interaction between objective antibody and the FcγR was carried out using Biacore T100 (GE Healthcare). HBS-EP+ (GE Healthcare) was used as the running buffer, and the measurement temperature was set to 25° C. Chips produced by immobilizing the antigen peptide by the amine coupling method to a Series S Sencor Chip CM5 (GE Healthcare), or alternatively, chips produced by allowing preliminarily biotinylated antigen peptides to interact with and immobilize onto a Series S Sensor Chip SA (certified) (GE Healthcare) were used. Antibodies of interest were captured onto an antigen peptide-immobilized chip, and allowed to interact to each FcγR diluted with running buffer. To regenerate and repeatedly use the chip, the antibodies captured on the chip were washed off by reacting 10 mM glycine-HCl, pH 1.5.
(§2) The FcγR-binding activity of each antibody was assessed primarily using as an indicator the FcγR-binding activity and dissociation constant for FcγR.

Assay [2] deals with T1, FcγRIIIa extracellular domain with …. Put plainly: SPR (Biacore), ratio of KD values for FcγRIIIa.
Source text: GpH7-A57 (SEQ ID NO: 40) resulting from the introduction of all of S239D, A330L, and I332E into GpH7-A5; GpH7-B78 (SEQ ID NO: 41) resulting from the introduction of all of S239D, A330L, and I332E into GpH7-B3; GpH7-TA7 (SEQ ID NO: 31) resulting from the introduction of all of L234Y, G236W, and S298A into GpH7-A5; and GpH7-TA45 (SEQ ID NO: 32) resulting from the introduction of all of L234Y, G236W, and S298A into GpH7-B3. […] The prepared antibodies were compared for the FcγRIIIa-binding activity using, as an indicator, KD for FcγRIIIa that was determined according to the method described in Reference Example 2.
as §1
On the technique in general: SPR reads the build-up and loss of mass on a sensor chip optically.

In assay [3] the target is T2, FcgRIIIa F extracellular domain with C-terminal His tag (human, UniProt P08637 17-208).
T2 construct: extracellular domain; also called FcγRIIIa F; FcγRIIIa (F158); not shown: His tag attached to the C terminus
The assay can be described thus: ratio of SPR (Biacore) KDs, FcγRIIb as reference. As to the method:
(§3) The prepared antibodies were assayed as to the KDs for FcγRIIIa and FcγRIIb according to the method described in Reference Example 2.
as §1, §2

Assay [4] deals with T2, FcgRIIIa F extracellular domain with …. Put plainly: SPR (Biacore T100), antibody captured on antigen peptide chip, FcγR extracellular domain as analyte, kinetic analysis. As to the method: as §3, §1, §2
The target of assay [5] is T3, FcgRIIb extracellular domain with C-terminal His tag (human, UniProt P31994 43-217).
T3 construct: extracellular domain; also called FcγRIIb; not shown: His tag attached to the C terminus
T3 sequence (looked up): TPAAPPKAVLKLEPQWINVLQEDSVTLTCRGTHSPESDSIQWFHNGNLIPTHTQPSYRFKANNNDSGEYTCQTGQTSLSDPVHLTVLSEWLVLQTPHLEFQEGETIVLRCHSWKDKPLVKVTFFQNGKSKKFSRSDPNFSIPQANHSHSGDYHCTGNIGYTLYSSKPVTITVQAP
Described as above. The procedure:
as §3, §1, §2

Assay [6] concerns the target T4, FcgRIIa R type extracellular domain, C-terminal His tag (human, UniProt P12318 34-217).
T4 construct: extracellular domain; also called FcγRIIa R; 2aR; not shown: His tag attached to the C terminus
T4 sequence (looked up): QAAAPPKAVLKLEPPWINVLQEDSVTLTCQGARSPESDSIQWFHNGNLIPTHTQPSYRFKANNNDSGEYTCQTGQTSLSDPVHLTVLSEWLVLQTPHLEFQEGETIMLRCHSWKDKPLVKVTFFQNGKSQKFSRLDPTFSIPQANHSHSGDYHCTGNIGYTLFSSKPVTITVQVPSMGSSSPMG
Put plainly: SPR (Biacore), antibody captured on chip, FcgR extracellular domain as analyte, 25 C, 1:1 Langmuir fit; experiment #3. As to the method:
(§4) Antibodies of interest were analyzed for the interaction to FcgR according to the method described in Reference Example 8.
(§5) Analysis of interaction between obj ective antibody and the FcγR was carried out using Biacore T100 (GE Healthcare), Biacore T200, Biacore A100, and Biacore 4000. HBS-EP+ (GE Healthcare) was used as the running buffer, and the measurement temperature was set to 25° C. Chips produced by immobilizing the antigen peptide by the amine coupling method to a Series S sensor Chip CM5 (GE Healthcare), chips produced by allowing preliminarily biotinylated antigen peptides to interact with and immobilize onto a Series S Sensor Chip SA (certified) (GE Healthcare), chips produced by immobilizing Protein L (ACTIGEN, BioVision) to Series S Sencor Chip CM5 (GE Healthcare), or chips produced by immobilizing Protein A/G (Thermo Scientific) to Series S Sencor Chip CM5 (GE Healthcare) were used. Antibodies of interest were captured onto these chips, and allowed to interact to each FcγR diluted with running buffer. To regenerate and repeatedly use the chip, the antibodies captured onto the chip were washed off by reacting 10 mM glycine-HCl, pH 1.5.

The target of assay [7] is T5, FcgRI extracellular domain, C-terminal His tag (human, UniProt P12314 16-292).
T5 construct: extracellular domain; also called FcγRIa; FcgRIa; not shown: His tag attached to the C terminus
The description is as above. As to the method: as §4, §5

For assay [8], the target named is T6, FcgRIIa H type extracellular domain, C-terminal His tag (human, UniProt P12318 34-217).
T6 construct: extracellular domain; also called FcγRIIa H; 2aH; not shown: His tag attached to the C terminus
T6 sequence (looked up): T4 sequence (looked up) with R134H
The description is as above. The procedure:
as §4, §5

The target of assay [9] is T7, FcgRIIIa F type extracellular domain, C-terminal His tag (human, UniProt P08637 17-208).
T7 construct: extracellular domain; also called FcγRIIIa F; 3aF; not shown: His tag attached to the C terminus
Described as above. As to the method:
as §4, §5

Assay [10] addresses T8, FcgRIIIa V type extracellular domain, C-terminal His tag (human, UniProt P08637 17-208).
T8 construct: extracellular domain; also called FcγRIIIa V; 3aV; not shown: His tag attached to the C terminus
The assay is described as above. As to the method: as §4, §5

The target in assay [11] is T9, FcgRIIb extracellular domain, C-terminal His tag (human, UniProt P31994 43-217).
T9 construct: extracellular domain; also called FcγRIIb; 2b; not shown: His tag attached to the C terminus
T9 sequence (looked up): T3 sequence (looked up)
Described as above. As to the method:
as §4, §5

Positions count from the first letter of the chain named. In names and notes the source's numbering stands.

T2 sequence (P08637 17-208): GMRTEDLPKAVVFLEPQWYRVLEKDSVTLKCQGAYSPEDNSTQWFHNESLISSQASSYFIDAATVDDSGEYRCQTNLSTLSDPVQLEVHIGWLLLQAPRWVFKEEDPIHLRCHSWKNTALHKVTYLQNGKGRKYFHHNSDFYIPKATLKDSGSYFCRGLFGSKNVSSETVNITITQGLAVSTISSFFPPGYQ
T1 sequence (P08637 17-208): as above
T7 sequence (P08637 17-208): as above
T5 sequence (P12314 16-292): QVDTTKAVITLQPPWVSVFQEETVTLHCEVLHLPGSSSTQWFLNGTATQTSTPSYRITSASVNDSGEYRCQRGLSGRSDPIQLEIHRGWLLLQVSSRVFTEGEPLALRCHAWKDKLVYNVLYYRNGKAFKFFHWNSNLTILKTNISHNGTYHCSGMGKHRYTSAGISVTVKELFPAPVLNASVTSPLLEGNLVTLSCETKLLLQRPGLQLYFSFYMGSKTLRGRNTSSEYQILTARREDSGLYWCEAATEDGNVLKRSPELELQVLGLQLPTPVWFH
T8 sequence (P08637 17-208 F176V limits assumed): as the sequence (P08637 17-208) above, with F160V counted along it

B1: GpH7-G1d/GpL16-k0 (antibody, human IgG1, kappa)
heavy: not shown
light: DIVMTQSPLSLPVTPGEPASISCQASESLVHSNRNTYLHWYLQKPGQSPQLLIYKVSNRFSGVPDRFSGSGSGTDFTLKISRVEAEDVGVYYCSQNTHVPPTFGQGTKVEIERTVAAPSVFIFPPSDEQLKSGTASVVCLLNNFYPREAKVQWKVDNALQSGNSQESVTEQDSKDSTYSLSSTLTLSKADYEKHKVYACEVTHQGLSSPVTKSFNRGEC
notes: Anti-glypican-3 native-type human IgG1 control; also called native IgG1
One may read the Kd as the equilibrium constant for the complex coming apart. Read a high Kd as weaker binding. Turning to B1, the equilibrium dissociation constant (Kd) in assay [1] was determined as 1200 nM. For the same molecule, the “KD ratio 1 (KD of GpH7-G1d/GpL16-k0 divided by KD of the antibody)” value in [2] amounted to 1 fold.

B2: GpH7-G1d/GpL16-k0 (antibody, human IgG1, kappa)
heavy: not shown
light: B1 light
notes: Anti-glypican-3 IgG1 lacking the C-terminal Gly and Lys; also called native IgG1
With B2, in assay [3], the “FcγRIIIa F/FcγRIIb ratio (KD for FcγRIIb / KD for FcγRIIIa F)” value came to 2.5. The figures for the Kd in assay [4] and in assay [5] were 1200 nM and 3100 nM, respectively.

B3: GpH7-A5/GpH7-B3/GpL16-k0 (antibody, human IgG1, kappa)
heavy 1: not shown
heavy 2: not shown
light: B1 light
notes: also called A5/B3; HeCon Ab
Regarding B3, the “FcγRIIIa F/FcγRIIb ratio (KD for FcγRIIb / KD for FcγRIIIa F)” value in assay [3] is 1.9. In addition, the Kd in [4] stood at 1600 nM; in [5], 3100 nM.

B4: GpH7-A57/GpH7-B78/GpL16-k0 (antibody, human IgG1, kappa)
heavy 1: QVQLVQSGAEVKKPGASVTVSCKASGYTFTDYEMHWIRQPPGEGLEWIGAIDPKTGDTAYSESFQDRVTLTADKSTSTAYMELSSLTSEDTAVYYCTRFYSYTYWGQGTLVTVSSASTKGPSVFPLAPSSKSTSGGTAALGCLVKDYFPEPVTVSWNSGALTSGVHTFPAVLQSSGLYSLSSVVTVPSSSLGTQTYICNVNHKPSNTKVDKKVEPKSCDKTHTCPPCPAPELLGGPDVFLFPPKPKDTLMISRTPEVTCVVVDVSHEDPEVKFNWYVDGVEVHNAKTKPREEQYNSTYRVVSVLTVLHQDWLNGKEYKCKVSNKALPLPEEKTISKAKGQPREPQVYTLPPSRKELTKNQVSLTCLVKGFYPSDIAVEWESNGQPENNYKTTPPVLDSDGSFFLYSKLTVDKSRWQQGNVFSCSVMHEALHNRYTQKSLSLSP
heavy 2: B4 heavy 1 with K354D, R433H, K437E
light: B1 light
notes: S239D/A330L/I332E in both H chains (called homodimerized); also called A57/B78
B4: in assay [3], the “FcγRIIIa F/FcγRIIb ratio (KD for FcγRIIb / KD for FcγRIIIa F)” value was determined as 100. Besides, the equilibrium dissociation constant (Kd) came out at 6.2 nM in assay [4] and 610 nM in assay [5].

B5: GpH7-A5/GpH7-B78/GpL16-k0 (antibody, human IgG1, kappa)
heavy 1: not shown
heavy 2: B4 heavy 1 with K354D, R433H, K437E
light: B1 light
notes: S239D/A330L/I332E in one H chain only; also called A5/B78
Turning to B5, the “FcγRIIIa F/FcγRIIb ratio (KD for FcγRIIb / KD for FcγRIIIa F)” value in [3] was 7.9. For the same molecule, the Kd in [4] turned out to be 54 nM; in assay [5] it was 430 nM.

B6: H240-FA021/H240-FB083/L73-k0 (antibody, human IgG1, kappa)
heavy 1: QDQLVQSGAEVKKPGASVKVSCKASGFNIKDTYIQWVRQAPGQGLEWMGRIDPLRKQTKYREKFEGRVTITADTSTNTAYMELSSLRSEDTAVYYCVRSGREFDYWGQGTLVTVSSASTKGPSVFPLAPSSKSTSGGTAALGCLVKDYFPEPVTVSWNSGALTSGVHTFPAVLQSSGLYSLSSVVTVPSSSLGTKTYTCNVNHKPSNTKVDKKVEPKSCDKTHTCPPCPAPEYYWGPSVFLFPPKPKDTLMISRTPEVTCVVVDVSDEEPEVKFNWYVDGVEVHNAKTKPREEQYNATYRVVSVLTVLHQDWLNGKEYKCKVSNKALPAPIEKTISKAKGQPREPQVYTLPPSRKEKTKNQVSLTCLVKGFYPSDIAVEWESNGQPENNYKTTPPKLDSDGSFFLYSKLTVDKSRWQQGNVFSCSVMHEALHNRYTQKSLSLSP
heavy 2: QDQLVQSGAEVKKPGASVKVSCKASGFNIKDTYIQWVRQAPGQGLEWMGRIDPLRKQTKYREKFEGRVTITADTSTNTAYMELSSLRSEDTAVYYCVRSGREFDYWGQGTLVTVSSASTKGPSVFPLAPSSKSTSESTAALGCLVEDYFPEPVTVSWNSGALTSGVHTFPAVLQSSGLYSLSSVVTVPSSNFGTQTYTCNVDHKPSNTKVDKTVEPKSCDKTHTCPPCPAPELLGGPSVFLFPPKPKDTLMISRTPEVTCVVVDVSHEEPEVQFNWYVDGVEVHNAETKPREEQYNSTYRVVSVLTVLHQDWLNGKEYKCKVSNDALPMPIEETISKAKGQPREPQVYTLPPSREEMTKNQVSLTCLVKGFYPSDIAVEWESNGQPENNYKTTPPVLDSDGSFFLYSKLTVDKSRWQQGNVFSCSVMHEALHNHYTQESLSLSP
light: DIQMTQSPSSLSASVGDRVTITCRASQDIHKYIAWYQQKPGQAPRLLIQYTSTLQPGVPSRFSGSGSGTDYTFTISSLQPEDIATYYCLQYEQLRTFGGGTKVEIKRTVAAPSVFIFPPSDEQLKSGTASVVCLLNNFYPREAKVQWKVDNALQSGNSQESVTEQDSKDSTYSLSSTLTLSKADYEKHKVYACEVTHQGLSSPVTKSFNRGEC
notes: Heterodimerized anti-epiregulin IgG1 antibody
B6: the dissociation constant Kd worked out at 240 nM in [6]; 0.078 nM in [7]; 69 nM in assay [8]; 3.9 nM in assay [9]; 1.4 nM in assay [10]; 1300 nM in assay [11].

B7: H240-FA021/H240-FB084/L73-k0 (antibody, human IgG1, kappa)
heavy 1: B6 heavy 1
heavy 2: B6 heavy 2 with N383E
light: B6 light
notes: Heterodimerized anti-epiregulin IgG1 antibody; also called H240-FA021/H240-BF084/L73-k0
Regarding B7, the Kd came out at 230 nM in assay [6]; 0.033 nM in [7]; 69 nM in assay [8]; 3.3 nM in assay [9]; 1.3 nM in [10]; 1300 nM in assay [11].

The record behind these values is US20180155451A1 (published 2018).
